Measured values published in article PMC7530648 (2020).
No end group written: not given here.

Molecular target: T1, S8-meSRK (S8-SRK ectodomain containing 11 mutations), purified, tags removed (Brassica rapa, three sugar chains (seen in the crystal structure))
T1 chain: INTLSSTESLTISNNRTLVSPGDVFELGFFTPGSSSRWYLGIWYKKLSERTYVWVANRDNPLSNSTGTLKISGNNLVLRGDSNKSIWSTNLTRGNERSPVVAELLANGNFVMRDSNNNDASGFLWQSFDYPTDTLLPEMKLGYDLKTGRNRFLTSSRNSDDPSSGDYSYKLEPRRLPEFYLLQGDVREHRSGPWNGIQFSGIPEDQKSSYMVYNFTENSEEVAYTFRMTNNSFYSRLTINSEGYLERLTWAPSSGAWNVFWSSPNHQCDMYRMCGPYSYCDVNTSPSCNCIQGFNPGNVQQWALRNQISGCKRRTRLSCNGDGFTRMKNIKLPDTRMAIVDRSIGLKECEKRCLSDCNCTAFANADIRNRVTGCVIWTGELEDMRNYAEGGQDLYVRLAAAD
Assay: ITC

B1: biotin-S8-SP11, chemically synthesized (ligand)
chain: NLMKRCTRGFRKLGKCTTLEEEKCKTLYPRGQCTCSDSKMNTHSCDCKSC
modifications: not fully specified; cysteine pairing not given here; also: biotin-S8 (position not given here)
With B1 the Kd was 20.2 nM.
